Reference: paper PMC12170906

Molecular target: RNAP-SigA holoenzyme (Mycobacterium tuberculosis, UniProt P9WGZ1;P9WGY9;P9WGY7;P9WGI1 1-347;1-1178;1-1316;1-528)
Experiment: EMSA
Settings: protein: recombinant; chain copies: 2;1;1;1; blunt

Chain of RNAP-SigA holoenzyme (P9WGZ1 whole entry, chain 1 of 4): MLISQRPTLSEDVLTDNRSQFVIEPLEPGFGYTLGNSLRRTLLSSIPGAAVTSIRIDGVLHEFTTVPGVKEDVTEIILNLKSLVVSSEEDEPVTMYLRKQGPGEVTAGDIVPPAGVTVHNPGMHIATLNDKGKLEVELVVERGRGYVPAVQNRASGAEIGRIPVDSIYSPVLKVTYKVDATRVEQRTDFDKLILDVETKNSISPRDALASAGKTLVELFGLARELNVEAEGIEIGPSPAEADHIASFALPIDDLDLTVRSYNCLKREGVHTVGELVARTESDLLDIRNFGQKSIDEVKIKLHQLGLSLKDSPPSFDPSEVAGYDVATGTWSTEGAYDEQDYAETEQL
Chain of RNAP-SigA holoenzyme (P9WGY9 whole entry, chain 2 of 4): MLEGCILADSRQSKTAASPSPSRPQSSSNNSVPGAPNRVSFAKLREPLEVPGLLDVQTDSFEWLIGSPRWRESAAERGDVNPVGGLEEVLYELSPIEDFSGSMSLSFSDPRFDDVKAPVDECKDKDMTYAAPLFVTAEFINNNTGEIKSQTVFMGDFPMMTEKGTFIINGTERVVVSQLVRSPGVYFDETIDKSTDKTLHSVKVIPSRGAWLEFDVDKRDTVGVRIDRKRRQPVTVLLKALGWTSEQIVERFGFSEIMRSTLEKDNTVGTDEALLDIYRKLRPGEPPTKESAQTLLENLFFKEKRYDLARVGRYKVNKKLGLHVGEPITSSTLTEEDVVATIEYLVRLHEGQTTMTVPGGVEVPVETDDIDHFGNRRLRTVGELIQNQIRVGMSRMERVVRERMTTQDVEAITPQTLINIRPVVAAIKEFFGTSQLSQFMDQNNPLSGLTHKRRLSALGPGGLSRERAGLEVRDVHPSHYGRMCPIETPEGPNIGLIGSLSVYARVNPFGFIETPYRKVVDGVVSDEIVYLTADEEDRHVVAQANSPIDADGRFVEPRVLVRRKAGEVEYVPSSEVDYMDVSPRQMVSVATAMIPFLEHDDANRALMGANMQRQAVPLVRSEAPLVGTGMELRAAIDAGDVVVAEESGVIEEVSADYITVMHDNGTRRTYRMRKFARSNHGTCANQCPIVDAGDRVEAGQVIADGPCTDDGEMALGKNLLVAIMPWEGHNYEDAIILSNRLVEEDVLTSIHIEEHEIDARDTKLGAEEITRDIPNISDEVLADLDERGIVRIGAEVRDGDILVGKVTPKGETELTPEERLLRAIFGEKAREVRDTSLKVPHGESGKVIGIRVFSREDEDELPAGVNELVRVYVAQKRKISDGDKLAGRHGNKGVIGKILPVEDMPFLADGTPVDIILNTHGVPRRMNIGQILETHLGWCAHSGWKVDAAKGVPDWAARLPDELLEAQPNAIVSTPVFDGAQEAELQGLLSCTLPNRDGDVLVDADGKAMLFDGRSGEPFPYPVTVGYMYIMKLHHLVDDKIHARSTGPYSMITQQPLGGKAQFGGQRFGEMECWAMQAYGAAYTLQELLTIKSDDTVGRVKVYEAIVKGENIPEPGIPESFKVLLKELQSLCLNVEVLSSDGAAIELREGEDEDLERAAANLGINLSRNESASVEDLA
Chain of RNAP-SigA holoenzyme (P9WGY7 whole entry, chain 3 of 4): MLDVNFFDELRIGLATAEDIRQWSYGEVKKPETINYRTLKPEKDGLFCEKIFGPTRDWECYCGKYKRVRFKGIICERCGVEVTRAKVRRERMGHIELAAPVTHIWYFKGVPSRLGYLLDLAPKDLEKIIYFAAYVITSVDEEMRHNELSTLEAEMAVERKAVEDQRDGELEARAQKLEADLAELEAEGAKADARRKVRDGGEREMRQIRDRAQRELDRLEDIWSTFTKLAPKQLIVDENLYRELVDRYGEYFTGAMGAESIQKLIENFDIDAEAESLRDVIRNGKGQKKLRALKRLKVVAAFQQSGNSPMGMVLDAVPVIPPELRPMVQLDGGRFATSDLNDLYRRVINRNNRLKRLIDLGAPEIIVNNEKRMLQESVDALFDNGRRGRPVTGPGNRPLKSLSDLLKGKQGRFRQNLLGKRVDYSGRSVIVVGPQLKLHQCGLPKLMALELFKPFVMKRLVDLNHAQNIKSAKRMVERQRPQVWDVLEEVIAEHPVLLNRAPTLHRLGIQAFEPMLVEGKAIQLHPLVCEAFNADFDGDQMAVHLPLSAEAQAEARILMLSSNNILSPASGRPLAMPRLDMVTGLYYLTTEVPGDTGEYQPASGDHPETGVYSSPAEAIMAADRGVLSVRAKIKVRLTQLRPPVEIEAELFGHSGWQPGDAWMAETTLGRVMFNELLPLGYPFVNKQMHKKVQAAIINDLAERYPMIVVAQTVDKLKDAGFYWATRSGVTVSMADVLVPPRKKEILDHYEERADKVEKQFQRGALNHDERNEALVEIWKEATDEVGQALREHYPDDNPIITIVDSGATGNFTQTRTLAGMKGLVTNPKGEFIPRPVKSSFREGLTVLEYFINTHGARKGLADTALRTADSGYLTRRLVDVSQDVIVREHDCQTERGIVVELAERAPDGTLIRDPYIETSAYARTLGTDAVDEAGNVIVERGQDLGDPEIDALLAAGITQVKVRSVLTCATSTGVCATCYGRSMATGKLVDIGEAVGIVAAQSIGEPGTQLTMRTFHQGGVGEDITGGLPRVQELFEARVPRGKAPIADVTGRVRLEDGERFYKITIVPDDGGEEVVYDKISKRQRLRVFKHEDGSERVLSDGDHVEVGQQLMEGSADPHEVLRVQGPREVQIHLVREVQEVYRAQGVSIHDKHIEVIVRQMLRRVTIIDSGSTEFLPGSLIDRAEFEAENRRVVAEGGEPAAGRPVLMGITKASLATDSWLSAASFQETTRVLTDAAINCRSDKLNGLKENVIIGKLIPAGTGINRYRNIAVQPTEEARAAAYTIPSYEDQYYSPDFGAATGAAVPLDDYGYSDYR
Chain of RNAP-SigA holoenzyme (P9WGI1 whole entry, chain 4 of 4): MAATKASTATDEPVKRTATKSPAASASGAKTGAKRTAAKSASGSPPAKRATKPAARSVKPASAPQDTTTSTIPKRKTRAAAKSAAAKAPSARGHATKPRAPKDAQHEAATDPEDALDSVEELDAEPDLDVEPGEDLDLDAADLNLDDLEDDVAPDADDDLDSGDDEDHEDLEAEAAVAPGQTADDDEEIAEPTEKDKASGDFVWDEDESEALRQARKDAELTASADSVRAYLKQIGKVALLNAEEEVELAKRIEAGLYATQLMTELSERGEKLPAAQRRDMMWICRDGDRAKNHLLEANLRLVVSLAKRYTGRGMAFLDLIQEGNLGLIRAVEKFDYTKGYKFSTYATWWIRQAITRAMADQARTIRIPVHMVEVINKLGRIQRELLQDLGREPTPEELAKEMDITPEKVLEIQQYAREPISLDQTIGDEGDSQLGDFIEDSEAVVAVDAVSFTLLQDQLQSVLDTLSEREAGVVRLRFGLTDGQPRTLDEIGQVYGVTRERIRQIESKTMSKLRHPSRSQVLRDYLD

B1: rrnAP3/ADPr (non-template strand modified) (dsDNA)
DNA 1: CTATGGATGACCGAACCTGGTCTTGACTCCATTGCCGGATTTGTATTAGACTGGCAGGGTCGCCCCGAAGCGGGCGGAAACAAGCAAGCGTGTTGTTTGAGAACTC
DNA 2: GAGTTCTCAAACAACACGCTTGCTTGTTTCCGCCCGCTTCGGGGCGACCCTGCCAGTCTAATACAAATCCGGCAATGGAGTCAAGACCAGGTTCGGTCATCCATAG
modifications: ADP-ribosyl-thymidine on strand 1 (non-template; DarT; positions inferred near -10 in Fig 3A)
  binding result: binds
